Laboratory results reported in US20060104980A1.

Experiments:
[1] = target: HCV 1b E2 deletion construct pDN-411 (influenza virus; Hepatitis C virus genotype 1b); experiment: GNA capture ELISA, HEK-293 extracts
[2] = target: HCV 1b E2 deletion construct pDN-411 (influenza virus; Hepatitis C virus genotype 1b); experiment: flow cytometry, transiently transfected HEK-293 cells, 10 ug/ml

| Substance | OD [1] | mean fluorescence [2] |
| --- | --- | --- |
| HMAb CBH-2 (antibody) | 0.1 to 0.5 od |  |
| HMAb CBH-4B (antibody) | > 0.5 od | 17 |
| HMAb CBH-5 (antibody) | > 0.5 od | 17 |
| HMAb CBH-7 (antibody) | > 0.5 od | 19 |
| HMAb CBH-8C (antibody) | > 0.5 od |  |
| HMAb CBH-8E (antibody) | 0.1 to 0.5 od |  |
| HMAb CBH-17 (antibody) | 0.1 to 0.5 od |  |
